Results from patent publication US11306156.
Blank lines part the entries; values can stand above or below the substance they belong to.

How the values were obtained:
[1] = target: D3H44 Fab heavy chain L124R_S186R, C-terminal ABD2-His6 tag; experiment: LCCA set 9544 (co-expression; SPR read-out of light-chain tags; L1:L2 DNA 1:3, normalized to 1:1); competing light chain m13
[2] = target: D3H44 Fab heavy chain L124E_L143E_K145T, C-terminal ABD2-His6 tag; experiment: LCCA set 9320 (co-expression; SPR read-out of light-chain tags; L1:L2 DNA 1:3, normalized to 1:1); competing light chain m9
[3] = target: D3H44 Fab heavy chain L124R_Q179K, C-terminal ABD2-His6 tag; experiment: LCCA co-expression, SPR tag read-out; DNA 1:3 norm. to 1:1; competing light chain m8
[4] = target: D3H44 Fab heavy chain L124E_L143E_K145T, C-terminal ABD2-His6 tag; experiment: as above
[5] = target: D3H44 Fab heavy chain L124R_S186R, C-terminal ABD2-His6 tag; experiment: as above
[6] = target: D3H44 Fab heavy chain L124E_L143D_K145M, C-terminal ABD2-His6 tag; experiment: LCCA set 9202 (co-expression; SPR read-out of light-chain tags; L1:L2 DNA 1:3, normalized to 1:1); competing light chain m13
[7] = target: D3H44 Fab heavy chain L124R_Q179K, C-terminal ABD2-His6 tag; experiment: LCCA co-expression, SPR tag read-out; DNA 1:3 norm. to 1:1; competing light chain m7
[8] = target: D3H44 Fab heavy chain L124E_L143E_K145T, C-terminal ABD2-His6 tag; experiment: as above
[9] = target: D3H44 Fab heavy chain L124E_L143D_K145T, C-terminal ABD2-His6 tag; experiment: LCCA set 9240 (co-expression; SPR read-out of light-chain tags; L1:L2 DNA 1:3, normalized to 1:1); competing light chain m13
[10] = target: D3H44 Fab heavy chain L124R_S186K, C-terminal ABD2-His6 tag; experiment: LCCA (co-expression, SPR read-out of light chain tags), L1:L2 DNA 1:3 normalised to 1:1; competitor m8
[11] = target: D3H44 Fab heavy chain L124E_L143E_K145T, C-terminal ABD2-His6 tag; experiment: as above
[12] = target: D3H44 Fab heavy chain L124R_S186R, C-terminal ABD2-His6 tag; experiment: as above
[13] = target: D3H44 Fab heavy chain L124R_S186K, C-terminal ABD2-His6 tag; experiment: LCCA set 9488 (co-expression; SPR read-out of light-chain tags; L1:L2 DNA 1:3, normalized to 1:1); competing light chain m9
[14] = target: D3H44 Fab heavy chain L124E_L143E_K145T, C-terminal ABD2-His6 tag; experiment: LCCA set 9323 (co-expression; SPR read-out of light-chain tags; L1:L2 DNA 1:3, normalized to 1:1); competing light chain m14
[15] = target: D3H44 Fab heavy chain L124R_S186K, C-terminal ABD2-His6 tag; experiment: LCCA set 9488 (co-expression; SPR read-out of light-chain tags; L1:L2 DNA 1:3, normalized to 1:1); competing light chain m18
[16] = target: D3H44 Fab heavy chain L124R_S186K, C-terminal ABD2-His6 tag; experiment: LCCA (co-expression, SPR read-out of light chain tags), L1:L2 DNA 1:3 normalised to 1:1; competitor m16
[17] = target: D3H44 Fab heavy chain L124E_L143E_K145M, C-terminal ABD2-His6 tag; experiment: as above
[18] = target: D3H44 Fab heavy chain L124E_L143D_K145T, C-terminal ABD2-His6 tag; experiment: as above
[19] = target: D3H44 Fab heavy chain L124R_Q179K, C-terminal ABD2-His6 tag; experiment: LCCA set 9388 (co-expression; SPR read-out of light-chain tags; L1:L2 DNA 1:3, normalized to 1:1); competing light chain m17
[20] = target: D3H44 Fab heavy chain L124E_L143E_K145M, C-terminal ABD2-His6 tag; experiment: LCCA set 9266 (co-expression; SPR read-out of light-chain tags; L1:L2 DNA 1:3, normalized to 1:1); competing light chain m17
[21] = target: D3H44 Fab heavy chain L124E_L143E_K145T, C-terminal ABD2-His6 tag; experiment: LCCA set 9320 (co-expression; SPR read-out of light-chain tags; L1:L2 DNA 1:3, normalized to 1:1); competing light chain m18
[22] = target: D3H44 Fab heavy chain L124R_Q179K, C-terminal ABD2-His6 tag; experiment: LCCA co-expression, SPR tag read-out; DNA 1:3 norm. to 1:1; competing light chain m13
[23] = target: D3H44 Fab heavy chain L124R_S186K, C-terminal ABD2-His6 tag; experiment: as above
[24] = target: D3H44 Fab heavy chain L124E_L143E_K145M, C-terminal ABD2-His6 tag; experiment: as above
[25] = target: D3H44 Fab heavy chain L124E_L143E_K145T, C-terminal ABD2-His6 tag; experiment: as above
[26] = target: D3H44 Fab heavy chain L124E_L143D_K145T, C-terminal ABD2-His6 tag; experiment: as above
[27] = target: D3H44 Fab heavy chain L124R_S186R, C-terminal ABD2-His6 tag; experiment: LCCA set 9550 (co-expression; SPR read-out of light-chain tags; L1:L2 DNA 1:3, normalized to 1:1); competing light chain m14
[28] = target: D3H44 Fab heavy chain L124E_L143E_K145T, C-terminal ABD2-His6 tag; experiment: LCCA set 9316 (co-expression; SPR read-out of light-chain tags; L1:L2 DNA 1:3, normalized to 1:1); competing light chain m17
[29] = target: D3H44 Fab heavy chain L124R_Q179K, C-terminal ABD2-His6 tag; experiment: LCCA (co-expression, SPR read-out of light chain tags), L1:L2 DNA 1:3 normalised to 1:1; competitor m13
[30] = target: D3H44 Fab heavy chain L124E_L143E_K145M, C-terminal ABD2-His6 tag; experiment: as above
[31] = target: D3H44 Fab heavy chain L124E_L143E_K145T, C-terminal ABD2-His6 tag; experiment: as above

H2L2:H2L1 normalized median ratio (H2L2 part) [1]: 92% | H1L1:H1L2 normalized median ratio (H1L2 part) [2]: 14% | H2L2:H2L1 normalized median ratio (% (ratio normalized to 100)) [3]: 90 | H1L1:H1L2 normalized median ratio (% (ratio normalized to 100)) [4]: 5 | H2L2:H2L1 normalized median ratio (% (ratio normalized to 100)) [5]: 91 | H1L1:H1L2 normalized median ratio (H1L2 part) [6]: 16% | H2L2:H2L1 normalized median ratio (% (ratio normalized to 100)) [7]: 90 | H1L1:H1L2 normalized median ratio (% (ratio normalized to 100)) [8]: 6 | H1L1:H1L2 normalized median ratio (H1L2 part) [9]: 13% | H2L2:H2L1 normalized median ratio [10]: 93% | H1L1:H1L2 normalized median ratio [11]: 13% | H2L2:H2L1 normalized median ratio [12]: 94% | H2L2:H2L1 normalized median ratio (H2L2 part) [13]: 91%
Substance: D3H44 light chain V133G_S176D_T178E_T180E, N-terminal HA or FLAG tag

H1L1:H1L2 normalized median ratio (H1L1 part) [14]: 91% | H1L1:H1L2 normalized median scalar value ln(r1/f1) [14]: 2.34 | H2L2:H2L1 normalized median ratio (H2L1 part) [15]: 9% | H2L2:H2L1 normalized median ratio [16]: 7% | H1L1:H1L2 normalized median ratio [17]: 88% | H1L1:H1L2 normalized median ratio [18]: 87% | H2L2:H2L1 normalized median ratio (H2L1 part) [19]: 8% | H1L1:H1L2 normalized median ratio (H1L1 part) [20]: 84% | H1L1:H1L2 normalized median scalar value ln(r1/f1) [20]: 1.67 | H1L1:H1L2 normalized median ratio (H1L1 part) [21]: 86% | H1L1:H1L2 normalized median scalar value ln(r1/f1) [21]: 1.82 | H2L2:H2L1 normalized median ratio (% (ratio normalized to 100)) [22]: 5 | H2L2:H2L1 normalized median ratio (% (ratio normalized to 100)) [23]: 7 | H1L1:H1L2 normalized median ratio (% (ratio normalized to 100)) [24]: 88 | H1L1:H1L2 normalized median ratio (% (ratio normalized to 100)) [25]: 91 | H1L1:H1L2 normalized median scalar value ln(r1/f1) [25]: 2.34 | H1L1:H1L2 normalized median ratio (% (ratio normalized to 100)) [26]: 87 | H2L2:H2L1 normalized median ratio (H2L1 part) [27]: 11% | H1L1:H1L2 normalized median ratio (H1L1 part) [28]: 88% | H1L1:H1L2 normalized median scalar value ln(r1/f1) [28]: 2 | H2L2:H2L1 normalized median ratio [29]: 7% | H1L1:H1L2 normalized median ratio [30]: 87% | H1L1:H1L2 normalized median scalar value ln(r1/f1) [30]: 1.9 | H1L1:H1L2 normalized median ratio [31]: 90% | H1L1:H1L2 normalized median scalar value ln(r1/f1) [31]: 2.15
Substance: D3H44 light chain Q124K_V133G_S176R_T178R, N-terminal HA or FLAG tag
